Two molecules from paper PMC6355189, “A structural model of the immune checkpoint CD160–HVEM complex derived from HDX-mass spectrometry and molecular modeling” (Oncotarget, 2019) can be followed below.

Ends that are not written are not given here.

In test [1] the target is T1, Recombinant human protein HVEM with His Tag (human, UniProt Q92956 39-202).
T1 construct: herpes virus entry mediator (HVEM), human, recombinant, bought; also called HVEM protein; herpes virus entry mediator; source: bought: Sino Biological Inc., China (#10334-H08H)
T1 sequence (looked up): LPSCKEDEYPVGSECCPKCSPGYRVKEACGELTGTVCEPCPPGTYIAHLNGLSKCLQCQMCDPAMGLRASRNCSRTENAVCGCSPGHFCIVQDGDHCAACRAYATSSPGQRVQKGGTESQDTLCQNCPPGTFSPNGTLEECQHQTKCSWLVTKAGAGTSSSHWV
Nature of the test: microcolumn affinity test with mass spectrometry; HVEM protein immobilised in a microcolumn; peptide applied; supernatant, last wash and elution analysed by mass spectrometry. As to conditions: both partners purified.

For the next test, the target named is T2, Human HVEM-Fc protein (human, UniProt Q92956 39-202).
T2 construct: herpes virus entry mediator (HVEM), human, as Fc fusion, bought; Detected by goat anti-human IgG(H+L)-HRP; source: bought: ACROBiosystems, USA (#HVM-H5258)
T2 sequence (looked up): T1 sequence (looked up)
The experiment in a line: ELISA; biotinylated peptides or biotinylated CD160 (1 μg/ml) on a streptavidin microplate; HVEM-Fc at 20, 10 and 5 μg/ml, 1 hour at 25°C; PBS-T (5 mM Na2HPO4, 150 mM NaCl with addition of 0.3 M NaCl and 0.05% Tween-20, pH 7.4); detection by goat antihuman IgG(H+L)–HRP. To be noted: both partners purified. (In an ELISA, binding on a coated surface is turned into a signal by an enzyme label.)

B1: CD160 (61–80) (peptide)
peptide: Ac-GVGEISSQLMFTISQVTPLH-NH2
notes: CD160, human, residues 61-80; source: synthetic peptide
B1: the binding result in test [1] is “binds”.

B2: CD160(61–80) peptide elongated by five glycine residues and biotin (peptide)
peptide: GVGEISSQLMFTISQVTPLH
modifications: also: elongated by five glycine residues and biotin, end not given here
notes: as for B1
Take B2: the binding result with Human HVEM-Fc protein was “binds”.
